Test: soluble on expression in E. coli; label from the status in PepcDB or PDB records

| Sequence | soluble on expression in E. coli |
| --- | --- |
| MSLKPTDLNLIPIFIAIYEERNLSRAAARLDITQPAVSKALARLRDIYDEPLFHRSSSGVEPTSFAVDIYPAMVAAIKNFTSTLSASVEFDPKVSNRIFSIACVSILSYELLPQLMKQIHELAPNIALEVHPLFTEDYESDLRLQRYDLIIDLAPRGRTVLKVEPVITERLMVVCNKDHPRIAESISQEQFFEEEHVAVSQWQSRKSMLSAEDIVDLDKRKIMYRAAGALEMLPVICGSEYIGLMPESMIKLFSNTYHVKALPFPFDVTTYDLCTIWHPSRTNESAHQWLRAQIKHAGKVIKEGHHHHHH | soluble |
| MSLKQIPLAERMRPKTLADYVGQQHLIGSGAVLRQMIEQGQTPSMILWGPPGVGKTTLAEIIAHEVDAPFYTLSAVSSGVKEVREVIADIESNRGNLFDKGGRAILFIDEIHRFSKSQQDSLLAAVERGIVTLIGATTENPSFEVIRPLLSRCQVYVLKPQSDEDLLLLAHRAIDRDELLAAKHPVLEETEALLLYAGGDARKLLNILDLLATSEVEDRLVITNEKIRQRLQENPAAFDKGGELHYDIASAFIKSIRGSDPDAAIYWLARLIDGGEEPSFIARRLIISASEDIGLANPNAMLIAMACAEALDRIGWPEGRIPLAEATIYLATSEKSNSAYLAIDSALEYVRQSGNLPVPLHLRNAPTRLMADLDYGKGYKYSHDFPEHFVSQQYLPDKAANTSFWTPQMHTVHEAKLGERMKRWWKREKSQKDEGHHHHHH | soluble |
| MSLKQISIRDVAALAGVSVGSASRVINGAANVTPDVRERVDRAIAALRYRPNHAAQSLRSRTSKTIGCMFSDVANPLYARAFRALEEHFRREGYMLLLANGLNDAEREIDIIQTFQLRGMDGVILAPGNERHPGVLDAVRRLSMPAVIYDRDLAVDADAVLFDHVAGVKAAIHHLVELGHTRIALALWQVKSRPVRRRIEGYKAAFKAAGLPVPDLILQEPTPTSSAFDDVTRLLQLPDPPTAFLAQGTHTLTSTLRAIAKQGLRVPEDVSVIGIGDTDFAQTYDPPLTVLRTPTDEVAAHAVEMLLSRLAAKGDASLSPRKALIQFDLILRESCAPVAREGHHHHHH | not soluble |
| MSLKQQVPLSTATVSMVHSVPELMVSSEQAEQLGREDQQRLHRNRKLVLMVDLDQTLIHTTEQHCQQMSNKGIFHFQLGRGEPMLHTRLRPHCKDFLEKIAKLYELHVFTFGSRLYAHTIAGFLDPEKKLFSHRILSRDECIDPFSKTGNLRNLFPCGDSMVCIIDDREDVWKFAPNLITVKKYVYFQGTGDMNAPPGSRESQTRKKVNHSRGTEEGHHHHHH | not soluble |
| MSLKRISIKDVALKAGVSIASVSYVLNNKIDSRIPQETIDKVKHAAEELNYRPNNIAKSLKTQRTHIIGLVVADIANPYFSQLARIIEDEANKLGYTLMIGSSDENAEKFEALINMFADRQADGLIIAPVENSEKCLLKLQKQKIPFVLIDRYLSGVEADSIQINNYDISQKVTEHLINGGYKNTLLVAYKTQLQHLLQRTQAFLNTLEKHQIQNSQVLLADKDYIDRDINTGLENMLQNAVKPDAIFFTSNKLAVSGLKKLTQLGINIPQDIAVAAFDETEAYELFPVPLTYVKQPLSAIGTTAVKMLNEKINIKNLPLQNVTLHAELHIGQSTKSKEGHHHHHH | soluble |
| MSLKRTVDFSMFRCPLCDSSMDAASGKSLICTERGHTFDLSRHGYVNFLTKPVKTSYGAELFEARSRLIGECGFFDPLHDAIAELISHPKSGHEAFTILDSGCGEGSHLNALCGFDYAGKAAIGTGIDLSKDGILKASKAFKDLMWAVADVARAPFHDRQFDVVLSIFSPSNYAEFHRLLKNDGMLIKVVPRSDYLIELRQFLYTDSPRRTYSNTAAVERFTANAAHSRPVRLRYVKTLDQQAIHWLLKMTPLAWSAPKDRVSLLKEMKSADITVDVDILIGMKEGHHHHHH | soluble |
| MSLKRYRTLLFDVDDTILDFQAAEALALRLLFEDQNIPLTNDMKAQYKTINQGLWRAFEEGKMTRDEVVNTRFSALLKEYGYEADGALLEQKYRRFLEEGHQLIDGAFDLISNLQQQFDLYIVTNGVSHTQYKRLRDSGLFPFFKDIFVSEDTGFQKPMKEYFNYVFERIPQFSAEHTLIIGDSLTADIKGGQLAGLDTCWMNPDMKPNVPEIIPTYEIRKLEELYHILNIENTVSEGHHHHHH | soluble |
| MSLKSHKLLYQLKNKLTWLPILILAACQNNIIYHSYAPVPLDGWDKSDTLVYTLPNSIPAGNYEAEIGIRYQESYPYRDIWLEVSHNTKDTLTYVTDTLQLFLVDEAGNKTGNGLCGLYQCDLPYKASIPIRTEGSARTFRIVHIMTDNPLTGISDIGIRLRKPENEGHHHHHH | not soluble |
| MSLKSIILEDANAKLREDAHTFVFDGHAGVKGRVDFARLGSNNPIEDDWDLKIAKGVGGTKTLYAGVYDGHAGWATSQVLRNALVPYVSGALSSLTPTTSTELVDDAIQKAFVRLDNRIFDTALKAVESGLDQGTASVISAVAPAIAGSCALLTMYEPVTSTLRTAVAGDSRAVRGAWSSNANKYETDILSIDQTGFNQLEVERLDKEHPGQLHSMLNLDSGRLFGLAVTRAFGDHRLKWPAKVIRKVQDDYYGTPPRPNYTTPPYLTARPEVTTRKIQTEDFVILGSDGLWDMISNEDAVTCISRWLSAKKSGKPEPFKETKFEGKLEDGWQATPEHHVIEDLDNAAVCLVKNAFGGSRRGLFLGAMTTYAPMSRNVRDDITVQIIFFKDPYEKEGHHHHHH | soluble |
| MSLKSILIMGGSDFIGSALAKRLIKCGYQIDILTNGKKEIDYNGFKEHLICDRKVRKDMENIITGRKYDYIYDMTAYTKEDVSNLIDFISMDNLKKYIVLSAGAVYKDSGRNIKEENEKGENENWGKYGLNKKEAEDFIINSPIPYIIIRPTYIYGENNNLYREYYFFEKIEKNEKIPVPKGKQVSNQFIYIGDLVKVLESIMKNPHVREAYNVTNPQLISWDDLIYTCGEIIGKEPIIKYVDMEKVEFRERTYFPFRNIDFNLDINKLIEHGLYIPNVLLKEGLTATYKWFSANKPKMHDRKMNKVESVMQIEGHHHHHH | soluble |
| MSLKSVVNDTDGIVRVAKSVIPEIKHQDEVRVKIASSGLCGSDLPRIFKNGAHYYPITLGHEFSGYIDAVGSGVDDLHPGDAVACVPLLPCFTCPECLKGFYSQCAKYDFIGSRRDGGFAEYIVVKRKNVFALPTDMPIEDGAFIEPITVGLHAFHLAQGCENKNVIIIGAGTIGLLAIQCAVALGAKSVTAIDISSEKLALAKSFGAMQTFNSSEMSAPQMQSVLRELRFNQLILETAGVPQTVELAVEIAGPHAQLALVGTLHQDLHLTSATFGKILRKELTVIGSWMNYSSPWPGQEWETASRLLTERKLSLEPLIAHRGSFESFTQAVRDIARNAMQGKVLLIPEGHHHHHH | soluble |
| MSLKTFIKIILLYLMPILAFATELRPGDRLQIKFPGESAFEKSFQLDHDGKISLPEIGTVKLQGMSLLQARTVLTGKLSNAYKDLSKFDLFLKERRLTVTVLGYVKEPGPVDMPIRANVQMAINSAGGLAQGAQLDKLQIRRSSGIIEFDYKHYLDSGDPSSLPKLEPMDVIFIPASPLIGNVQVEFDARTLTASGDAGEDGEAIKVFGEVHRPGTFAFKEDASVMDMIMRAGGVTRYAGIEQIRVIHQGQPYPFDMREYLDTGNPDLMPKIHQGDVIFIPQATEQVKSGSRTVYVMGEVFKPGAMEMGEGSGFYDLLATAGGPTRFAETRQIRIIRADGKVQPFDLQGYVDSQGRTKLPSIQPGDAILVPEKTDMNEKSWLKVHPNRAVRIIGAVNRPGRYEWASEMTLMDLIAHAGGPIASADTAHLQILQQRKNGNTESVSFDLKSFLDEGHHHHHH | not soluble |
| MSLKTLSDDLYKQFSNFLAVQSGIVLGDNKQYLVKSRLSPLMTQFGIESLSDLVTRAMSVRERDLKMAVVDAMTTNETLWFRDTYPFQLLTDKIFPELGKSGRPIKIWSAASSSGQEPYSIAMTALEQQVKKPGTLPGGVQIVGTDISSTMLNQCKEGVYDSLALARGLSPERKKLFFEPYGDNKMRVVERVRKLTTFRPLNLLESYSLLGKFDIIFCRNVLIYFAPEVKSKILNQFAASLNPGGYLMLGASESLAGLTDRFEMIRCNPGIVYKVKEGHHHHHH | soluble |
| MSLKTPIFAQQTDPALTSAVLGQTAALKKVHKDRKKTQEKIIAAEVAVTASLERIHHVEDKMLDYLSNAQGAMQNLYQIKRAGELVAKEIPQNCSLLLKSVGGNLKGTVIAAMVSDELTDAATQMTALFPFMKQLVTSGKYDVTGDDGKNEKHKVNLLNASERYYIANEVVSRLEAINTNLFILAWQVRTLSWNDLWFSLDPEGWANVMSGKNIIGGIISDWNQGYSLKEGHHHHHH | soluble |
| MSLKVLICDDDKIVRDDIANIAKESGYVDYVKKVKDGIEAIEFIKNEKIDLLIIDIDMPYKNGIDSAEEILSIDKDIHIVFVTGFADYSLESFKVHPIDFVVKPFKKEKILDSINIAIDHINSHKIANNNFIEDTLFVYKIRKQIHMINFDDIVMFEKNSRAINLHTKDEDIIKFYENFDDLKKRLPPNFFMTHRQYIVNLRFIHKVIPINKSSLEIRFINFQENAILNKSLEKDFLYRFYREGHHHHHH | not soluble |
| MSLKWNRPAGSLSATLILAHGAGAPMDSPFMERIAELLAAQGIAVARFEFPYMAQRREDGRKRPPNPQAQLLDCWRRVHAQVRETLDGPLALGGKSMGGRMASLLADELGADALVCLGYPFYAAGKPEKPRVAHLAGLRTPTLIVQGERDALGNREAVAGYALAPTIRLHWLAAADHDLKPLKASGLTHEQHLAATAREVAGFLRGLQGH | not soluble |
| MSLLMIIDCHGHYTVLPKAHDEWREQQKAAFKAGQPAPPYPEISDDEIRETIEANQLRLIKERGADMTIFSPRASAMAPHVGDQSVAVPWAQACNNLIARVVDLFPETFAGVCMLPQSPEADMTSSIAELERCVNELGFIGCNLNPDPGGGHFKHPPLTDRFWYPFYEKMVELDVPAMIHVSGSCNPAMHATGAYYLAADTIAFMQLLQGNLFADFPTLRFIIPHGGGAVPYHWGRFRGLADMLKQPSLDTLLMNNVFFDTCVYHQPGINLLADVIDNKNILFGSEMVGAVRGIDPTTGHYFDDTKRYIDALDISDQERHAIFEGNTRRVFPRLDAKLKAREGHHHHHH | soluble |
| MSLLWKKAQEETHDYIIRKADPSDAAGIISCMQSVMDERIYLVGEYYLLSERAEQERIKSLDDLTLVCVIDRKVVGVLTVQRGIYRKNRHTGMLGIAIMAGHRHKGLGTRMIKEAILWCEDQGIKKLNLEVFSTNVNAIKTYEKVGFEVEGKRRKQFLIDGQYVDDVLMTYYVDKSLKEEGHHHHHH | soluble |
| MSLMIRAITIFVTNYSKISDYTEKLSKLNDNNIWSKRISLPPTPIDLSLSKLIELLPTTHSEIIFSLINLQEKDKRLREIKDILKSDKRIYVHVLVKTTDNLKDLAKLIISLEPEEASRFALLFNQDFLLTPYFPTSSANTVYDSFGISLLYVDEFKQGKINEALSKADTIGRQLEKKLNIKYLGIDASLSPWMESSVGEIVESRSKKMFDISNLSAVAEINREIFEGVWRNRVNPIGFSELMLPIAEDNLLRERVKEGSLTLKDLLLMSYVCVAGIDMVGIYSDLVTYENILKSVYYIQYTKRKPYGVRMIPTNGSPVLTKMFGEIPEVKVVEGHHHHHH | soluble |
| MSLMRKNETREFLIEDIEFPAVGVAFYNDKKVYIKGAVPGQKVLARVSKVRREKIEAKLKEIVTNIPGAAQPKCPDFGVCGGCVHQFLPYEKQLEFKEREVLKLFKDAKIEGFEYLGILGSPEKEEYRNKMEYTFGDFVKGGELTLGMHAKDSGFSIVNTDKCNIVDEDFRIILKTVVEYFRKKDLPIYKVMQHVGYLRNLVVRKAKNTGEILIALVTTSQVDFDLTELTEILKSINYLGELKGILHVINDGLADMVRGDKIVTLFGQDYITERILDLKFKMSLFSFFQTNSKGAEKLYSEVLEFLGDVSNKTVFDLYCGTGTIGQLASKKAEKVIGIELIEEAVEAAKENTKLNNISNCSFIAGDVAKVITEIKEKPDTIILDPPRPGVSPNAMKYVIKFNAPEIVYVSCNPKTLVNDLGVLRAYGYEVEKVKIVDMFPGTGHVETVVLLQRKIIEGHHHHHH | soluble |

— the DeepSol protein solubility set
